# Experimental data reported in patent US20150246947A1 (BAXALTA, published 2015).
# T1: human Protein S (human, UniProt P07225 42-676)
# T1 sequence: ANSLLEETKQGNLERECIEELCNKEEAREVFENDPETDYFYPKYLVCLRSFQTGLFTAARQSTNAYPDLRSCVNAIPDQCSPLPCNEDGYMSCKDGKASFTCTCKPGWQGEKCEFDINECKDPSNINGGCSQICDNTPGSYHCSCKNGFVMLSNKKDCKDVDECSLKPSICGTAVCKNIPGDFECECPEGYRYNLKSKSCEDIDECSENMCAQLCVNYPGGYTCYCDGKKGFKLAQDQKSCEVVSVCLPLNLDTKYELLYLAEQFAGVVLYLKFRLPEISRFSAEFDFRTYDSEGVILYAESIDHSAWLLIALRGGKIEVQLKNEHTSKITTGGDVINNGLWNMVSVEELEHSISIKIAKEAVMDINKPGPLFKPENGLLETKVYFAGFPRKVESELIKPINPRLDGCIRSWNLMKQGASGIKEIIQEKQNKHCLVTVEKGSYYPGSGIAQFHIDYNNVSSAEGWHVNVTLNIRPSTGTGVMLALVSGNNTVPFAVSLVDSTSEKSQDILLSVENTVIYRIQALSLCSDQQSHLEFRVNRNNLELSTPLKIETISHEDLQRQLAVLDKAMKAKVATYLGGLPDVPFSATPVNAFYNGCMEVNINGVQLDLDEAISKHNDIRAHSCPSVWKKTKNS
# T2: human Protein S (UniProt P07225 42-676)
# T2 chain: T1 sequence
# B1: JBS3321 (peptide)
# peptide: Ac-EYYVSAGWYDYNTDTYYEFEC-NH2
# modifications: not fully specified (residue 21)
# notes: Tetramer of JBS3319 monomers with a four arm 10 kD PEG moiety
# Molecular target: T1, human Protein S
# Assay: cell-based or functional assay
row,CAT EC50,Binder
1,146 nM,Ac-TGLVEAGWYDYNFDHYMEFT-NH2 [JBS3197]
2,147 nM,Ac-YGLVSAGWYDYNFDVYREFT-NH2 [JBS3191]
3,117 nM,Ac-TGLVEAGWYDYNFDTYREFT-NH2 [JBS3192]
4,130 nM,Ac-YGLVSAGWYDYNFDTYREFT-NH2 [JBS3190]
5,149 nM,Ac-TGLVSAGWYDYNNDHYMEFT-NH2 [JBS3198]
6,155 nM,Ac-TGLVSAGWYDYNFDTYTEFT-NH2 [JBS3188]
7,176 nM,Ac-TGLVSAGWYDYNFDTYMEFT-NH2 [JBS3186]
8,281 nM,Ac-TGLVSAGWYDYNFDVYTEFT-NH2 [JBS3189]

# Molecular target: T1, human Protein S
# Assay: competition ELISA; Protein S coated; competitor biotinylated tracer JBS0684
# Protocol: The competition (IC50) ELISA was performed using biotinylated tracer peptide JBS0684 to compete for Protein S-binding with candidate peptides. Peptides that compete with the tracer bind the same region of Protein S as the tracer (and each other). Ninety-six well PolySorp plates (Nunc) were coated with 3 μg/mL Protein S in coating buffer (15 mM Na₂CO₃, 35 mM NaHCO₃, pH 9.6) over night. […] Plates were then washed three times with HNaT. JBS0684 was applied at a concentration corresponding to the EC90 value determined in the binding ELISA. A competitor stock solution of peptide (10 mM) was diluted 1/33.3 in HNaT without HSA, and a serial 1/3 dilution was prepared with HNaT with 3% DMSO. The dilution was further diluted with the biotinylated tracer peptide in a ratio of 1:6 (20 μl competitor dilution and 100 μl tracer peptide). The mixture of competitor and tracer peptide was applied to the Protein S-coated microtiter plate and incubated for 1.5 hours. The plates were washed three times with HNaT. Peptide-Protein S binding was detected by applying HRP-conjugated streptavidin to the microtiter plate, incubating the mixture for one hour, washing the plate three times with HNaT, applying TMB (3,3′5,5′-Tetramethylbenzidin), and detecting the subsequent chromogenic conversion of TMB by HRP. IC50 measurements of peptides are provided herein (see, e.g., Table 3).
row,IC50,Binder
1,6.8 nM,Ac-TGHVSAGWYDYNFDDYREFT-NH2 [JBS2546]
2,3.4 nM,Ac-TGHVSAGWYDYNKDHYREFT-NH2 [JBS2602]
3,2.8 nM,Ac-TGHVSAGWYDYNFDSYREFT-NH2 [JBS2661]
4,5.6 nM,Ac-TGKVSAGWYDYNFDHYREFT-NH2 [JBS2592]
5,5.2 nM,Ac-TGHVSAGWYDYNFDAYREFT-NH2 [JBS2528]
6,2.6 nM,Ac-TGHVSAGWYDYNFDHYLEFT-NH2 [JBS2586]
7,2.3 nM,Ac-TGHVSAGWYDYNLDHYREFT-NH2 [JBS2582]
8,5.5 nM,Ac-GGHVSAGWYDYNFDHYREFT-NH2 [JBS2552]
9,1.6 nM,Ac-TGHVSAGWYDYNFDHYFEFT-NH2 [JBS2625]
10,3.3 nM,Ac-TAHVSAGWYDYNFDHYREFT-NH2 [JBS2516]
11,3.6 nM,Ac-TGHVSAGWYDYNADHYREFT-NH2 [JBS2526]
12,4.1 nM,Ac-TGHVSAGWYDYNFDKYREFT-NH2 [JBS2604]
13,4.2 nM,Ac-TKHVSAGWYDYNFDHYREFT-NH2 [JBS2591]
14,2.7 nM,Ac-TGHVSAGWYDYNFDLYREFT-NH2 [JBS2584]
15,3.1 nM,Ac-TPHVSAGWYDYNFDHYREFT-NH2 [JBS2629]
16,3.9 nM,Ac-TGHVSAGWYDYNFDHYREFT-NH2 [JBS2512]

# Molecular target: T1, human Protein S
# Assay: cell-based or functional assay
# Remark: another data set of the same source
row,CAT EC50,Binder
1,30 nM,Ac-TGHVSAGWYDYNFDDYREFT-NH2 [JBS2546]
2,30 nM,Ac-TGHVSAGWYDYNKDHYREFT-NH2 [JBS2602]
3,16 nM,Ac-TGHVSAGWYDYNFDSYREFT-NH2 [JBS2661]
4,68 nM,Ac-TGKVSAGWYDYNFDHYREFT-NH2 [JBS2592]
5,23 nM,Ac-TGHVSAGWYDYNFDAYREFT-NH2 [JBS2528]
6,19 nM,Ac-TGHVSAGWYDYNFDHYLEFT-NH2 [JBS2586]
7,15 nM,Ac-TGHVSAGWYDYNLDHYREFT-NH2 [JBS2582]
8,24 nM,Ac-GGHVSAGWYDYNFDHYREFT-NH2 [JBS2552]
9,29 nM,Ac-TGHVSAGWYDYNFDHYFEFT-NH2 [JBS2625]
10,21 nM,Ac-TAHVSAGWYDYNFDHYREFT-NH2 [JBS2516]
11,19 nM,Ac-TGHVSAGWYDYNADHYREFT-NH2 [JBS2526]
12,19 nM,Ac-TGHVSAGWYDYNFDKYREFT-NH2 [JBS2604]
13,9 nM,Ac-TGHVSAGWYDYNFDLYREFT-NH2 [JBS2584]
14,25 nM,Ac-TPHVSAGWYDYNFDHYREFT-NH2 [JBS2629]
15,24 nM,Ac-TGHVSAGWYDYNFDHYREFT-NH2 [JBS2512]

# Molecular target: T1, human Protein S
# Assay: Biacore (SPR), Protein S immobilized
# How it was run: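 Kd was derived from kon and koff, which came from fitting surface plasmon resonance sensorgrams to a Langmuir binding model. Measurements used a Biacore 3000 or Biacore T200 with 1000 RU of human full-length Protein S on a […] chip, and peptides were injected at various concentrations in HBS-buffer with 3 mM CaCl₂ and 1% DMSO.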
Kd,koff,kon,Binder
0.02 nM,3.88e-05 s⁻¹,1.58e+06 M⁻¹ s⁻¹,B1
0.4 nM,0.000402 s⁻¹,1e+06 M⁻¹ s⁻¹,Ac-HWYVSAGWYDYNEDKYYEFE-NH2 [JBS3306]
0.4 nM,0.000322 s⁻¹,735000 M⁻¹ s⁻¹,Ac-AIYVTAGWYDYNNDTYYEFT-NH2 [JBS3283]
0.4 nM,0.000264 s⁻¹,629000 M⁻¹ s⁻¹,Ac-EYIVTAGWYDYNKDIYYEFK-NH2 [JBS3263]

# Molecular target: T2, human Protein S
# Assay: LANCE competition
# How it was run: (§1)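 This homogeneous time-resolved FRET competition assay (LANCE) used europium-labelled Protein S, ULight-labelled streptavidin and a biotinylated tracer peptide, with unlabelled test peptide titrated in three-fold steps. Final concentrations were 10 nM Protein S, 100 nM streptavidin and 300 nM tracer in 50 µl (or 2 nM Protein S and 60 nM tracer on a Tecan F500). Samples were incubated 1 hour at room temperature and read at Ex 340 nm, Em 665 nm. IC50 came from non-linear regression of the 665 nm signals.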
row,IC50,Binder
1,0.7 nM,B1
2,0.8 nM,Ac-HWYVSAGWYDYNEDKYYEFE-NH2 [JBS3306]
3,0.9 nM,Ac-AIYVTAGWYDYNNDTYYEFT-NH2 [JBS3283]
4,1.2 nM,Ac-EYIVTAGWYDYNKDIYYEFK-NH2 [JBS3263]

# Molecular target: T2, human Protein S
# Assay: LANCE competition
# Remark: another data set of the same source
# How it was run: as §1
row,IC50,Binder
1,31 nM,Ac-TGHVSAGWYDYNFDDYREFT-NH2 [JBS2546]
2,10.9 nM,Ac-TGHVSAGWYDYNKDHYREFT-NH2 [JBS2602]
3,7.8 nM,Ac-TGHVSAGWYDYNFDSYREFT-NH2 [JBS2661]
4,20 nM,Ac-TGKVSAGWYDYNFDHYREFT-NH2 [JBS2592]
5,18.8 nM,Ac-TGHVSAGWYDYNFDAYREFT-NH2 [JBS2528]
6,11 nM,Ac-TGHVSAGWYDYNFDHYLEFT-NH2 [JBS2586]
7,7.4 nM,Ac-TGHVSAGWYDYNLDHYREFT-NH2 [JBS2582]
8,16.6 nM,Ac-GGHVSAGWYDYNFDHYREFT-NH2 [JBS2552]
9,6.6 nM,Ac-TGHVSAGWYDYNFDHYFEFT-NH2 [JBS2625]
10,9.9 nM,Ac-TAHVSAGWYDYNFDHYREFT-NH2 [JBS2516]
11,21.5 nM,Ac-TGHVSAGWYDYNFDHYREFT-NH2 [JBS2512]

# Molecular target: T1, human Protein S
# Assay: LANCE TR-FRET competition; Eu-labeled Protein S; competitor tracer JBS0684
# Protocol: Peptides also were characterized in a competition, homogenous europium-based TR-FRET assay (LANCE IC50 assay) using JBS0684 as a tracer (i.e., competitor for Protein S binding). The following reagents were mixed together in a Perkin-Elmer ProxiPlate MTP well (indicated concentration is the final concentration): Eu-labeled Protein S (10 nM), Ulight™-labeled Streptavidin (100 nM), tracer (JBS0684 (300 nM)), and peptide (titrated in three-fold dilution steps). The final volume was 50 μl/well. The reaction mix was incubated for 1 hour at room temperature, then the fluorescence emission at 665 nm was recorded on a multi-mode reader (SpectraMax® M5, Molecular Devices) using the following instrument settings: Ex 340 nm, Em 665 nm, delay 50 μsec, integration 100 μsec, reads 100. Binding of tracer peptides to soluble europium-labeled Protein S was detected by Streptavidin labeled with an acceptor fluorophor (ULight™). Inhibition of tracer-binding to Protein S by a non-biotinylated peptide results in a decrease of TR-FRET between the Eu-labeled Protein S and ULight™-labeled Streptavidin. IC50 values were obtained from peptide titration curves at constant tracer concentration using non-linear regression of the fluorescence emission signals at 665 nm.
# Several peptides having multiple substitutions in the JBS2572 amino acid sequence were synthesized and evaluated using LANCE IC50 and CAT assays described above. For the assays, pooled normal plasma was supplemented with 3 nM APC and triggered with 6 pM TF, and 15 μM phospholipids (DOPC/POPS 80/20). Stock APC was diluted with TF-PL-MIX to 24 nM (plasma concentration: 3 nM).
row,IC50,Binder
1,6.1 nM,Ac-TGLVEAGWYDYNFDHYMEFT-NH2 [JBS3197]
2,1.6 nM,Ac-YGLVSAGWYDYNFDVYREFT-NH2 [JBS3191]
3,2.8 nM,Ac-TGLVEAGWYDYNFDTYREFT-NH2 [JBS3192]
4,1.6 nM,Ac-YGLVSAGWYDYNFDTYREFT-NH2 [JBS3190]
5,2.5 nM,Ac-TGLVSAGWYDYNNDHYMEFT-NH2 [JBS3198]
6,2.9 nM,Ac-TGLVSAGWYDYNFDTYTEFT-NH2 [JBS3188]
7,2.6 nM,Ac-TGLVSAGWYDYNFDTYMEFT-NH2 [JBS3186]
8,5 nM,Ac-TGLVSAGWYDYNFDVYTEFT-NH2 [JBS3189]
